Laboratory results taken from patent publication US20030028904A1 (published 2003).

Molecular target: T1, His-tagged Dock180 (UniProt Q14185 1-1865)
T1 construct: also called His-Dock180; CED-5/Dock180; not shown: His tag
Test: co-immunoprecipitation, anti-FLAG IP and anti-Dock180 blot, COS-7 cells (FIG. 20B lane 9)
Excerpt: COS-7 cells were transfected with the indicated plasmids and the lysates were immunoprecipitated with anti-FLAG antibody and immunoblotted with anti-Dock180 (a mixture of N- and C-terminal antibodies). The same blot was stripped and reprobed with anti-FLAG to determine expression of the FLAG-tagged proteins. Immunoblotting of total lysates indicated the expression of Dock180 in the appropriate lanes. FIG. 20C is a photograph of a blot showing that ELMO1 and ELMO2 interact with Dock180. COS-7 cells were transfected as above with plasmids coding for FLAG-tagged ELMO1, ELMO2, the N-term or C-term versions of ELMO1 along with His-Dock180. After anti-FLAG immunoprecipitation, the coprecipitation of Dock180 was analyzed by immunoblotting. FIG. 20D is a photograph of a blot showing that CED-12 interacts with CED-5, but not Rac in a yeast two-hybrid assay. Interaction between Caenorhabditis elegans CED-12 and CED-5 as well as Rac wt and mutants were analyzed by yeast two-hybrid interaction as described in the Experimental procedures. Growth seen on selective plates is shown. FIG. 20E is a photograph of a blot showing that formation of a trimeric complex between ELMO1, CrkII and Dock180. […]
It was determined whether there might be a physical interaction between ELMO1 and Dock180, Rac or CrkII. […]

binding result: no binding
B1: FLAG-tagged human CED-6 (other, UniProt Q9UBP9 1-304, looked up)
chain: MNRAFSRKKDKTWMHTPEALSKHFIPYNAKFLGSTEVEQPKGTEVVRDAVRKLKFARHIKKSEGQKIPKVELQISIYGVKILEPKTKEVQHNCQLHRISFCADDKTDKRIFTFICKDSESNKHLCYVFDSEKCAEEITLTIGQAFDLAYRKFLESGGKDVETRKQIAGLQKRIQDLETENMELKNKVQDLENQLRITQVSAPPAGSMTPKSPSTDIFDMIPFSPISHQSSMPTRNGTQPPPVPSRSTEIKRDLFGAEPFDPFNCGAADFPPDIQSKLDEMQEGFKMGLTLEGTVFCLDPLDSRC
notes: not shown: FLAG tag
